{"source": "paper PMC11401910", "about": "“Dual client binding sites in the ATP-independent chaperone SurA” (Nature Communications, 2024)", "binders": {"B1": {"name": "Cys-OmpX labelled with Alexa Fluor 488 (natural protein)", "chain": "MGSCATSTVTGGYAQSDAQGQMNKMGGFNLKYRYEEDNSPLGVIGSFTYTEKSRTASSGDYNKNQYYGITAGPAYRINDWASIYGVVGVGYGKFQTTEYPTYKHDTSDYGFSYGAGLQFNPMENVALDFSYEQSRIRSVDVGTWIAGVGYRF", "modifications": "Alexa Fluor 488 on the N-terminal Cys", "notes": "lacks the C-terminal Cys of Cys-OmpX-Cys; The MST methods say only 'Alexa Fluor 488-labelled OmpX'; also called Alexa Fluor 488-labelled OmpX; OmpX (MST); source: E. coli BL21[DE3], inclusion bodies, purified; labelled by maleimide chemistry"}, "B2": {"name": "Cys-OmpX-Cys labelled with Alexa Fluor 488 and ATTO 565 (natural protein)", "chain": "MGSCATSTVTGGYAQSDAQGQMNKMGGFNLKYRYEEDNSPLGVIGSFTYTEKSRTASSGDYNKNQYYGITAGPAYRINDWASIYGVVGVGYGKFQTTEYPTYKHDTSDYGFSYGAGLQFNPMENVALDFSYEQSRIRSVDVGTWIAGVGYRFC", "modifications": "Alexa Fluor 488 and ATTO 565 via maleimide on the N- and C-terminal Cys residues (stochastic labelling)", "notes": "additional C-terminal Cys residue; Unfolded client in 0.1 M urea; also called OmpX (smFRET); FRET-labelled OmpX; source: E. coli BL21[DE3], inclusion bodies, purified; labelled by maleimide chemistry"}, "B3": {"name": "OmpX (natural protein, UniProt P0A917 24-171, looked up)", "chain": "ATSTVTGGYAQSDAQGQMNKMGGFNLKYRYEEDNSPLGVIGSFTYTEKSRTASSGDYNKNQYYGITAGPAYRINDWASIYGVVGVGYGKFQTTEYPTYKHDTSDYGFSYGAGLQFNPMENVALDFSYEQSRIRSVDVGTWIAGVGYRF", "notes": "Unfolded client in the assay (0.8 M urea); Cloned at the NdeI site, so a start Met probably precedes residue 24; also called unfolded OmpX; full-length OmpX; source: E. coli BL21[DE3], inclusion bodies, purified in 6 M Gdn-HCl (Superdex 75)"}, "B4": {"name": "tOmpA (domain or fragment, UniProt P0A910 22-192, looked up)", "chain": "APKDNTWYTGAKLGWSQYHDTGFINNNGPTHENQLGAGAFGGYQVNPYVGFEMGYDWLGRMPYKGSVENGAYKAQGVQLTAKLGYPITDDLDIYTRLGGMVWRADTKSNVYGKNHDTGVSPVFAGGVEYAITPEIATRLEYQWTNNIGDAHTIGTRPDNGMLSLGVSYRFG", "notes": "Unfolded client (0.8 M urea); source: E. coli BL21[DE3], inclusion bodies, purified in 6 M Gdn-HCl (Superdex 75)"}, "B5": {"name": "OmpF (natural protein, UniProt P02931 23-362, looked up)", "chain": "AEIYNKDGNKVDLYGKAVGLHYFSKGNGENSYGGNGDMTYARLGFKGETQINSDLTGYGQWEYNFQGNNSEGADAQTGNKTRLAFAGLKYADVGSFDYGRNYGVVYDALGYTDMLPEFGGDTAYSDDFFVGRVGGVATYRNSNFFGLVDGLNFAVQYLGKNERDTARRSNGDGVGGSISYEYEGFGIVGAYGAADRTNLQEAQPLGNGKKAEQWATGLKYDANNIYLAANYGETRNATPITNKFTNTSGFANKTQDVLLVAQYQFDFGLRPSIAYTKSKAKDVEGIGDVDLVNYFEVGATYYFNKNMSTYVDYIINQIDSDNKLGVGSDDTVAVGIVYQF", "notes": "as for B4"}}, "details_in_all_cases": "both partners purified", "key": {"SurA-WT [1]": {"biological_target": "T1, SurA-WT (E. coli, UniProt P0ABZ6 21-428)", "T1 construct": "no cleavage step is described; For NMR the protein was made in D2O medium with 13C labels on Ile delta1 and Met epsilon methyls; also called wild-type SurA; apo-SurA; source: E. coli BL21(DE3), purified (HisTrap, dialysis)", "T1 sequence (looked up)": "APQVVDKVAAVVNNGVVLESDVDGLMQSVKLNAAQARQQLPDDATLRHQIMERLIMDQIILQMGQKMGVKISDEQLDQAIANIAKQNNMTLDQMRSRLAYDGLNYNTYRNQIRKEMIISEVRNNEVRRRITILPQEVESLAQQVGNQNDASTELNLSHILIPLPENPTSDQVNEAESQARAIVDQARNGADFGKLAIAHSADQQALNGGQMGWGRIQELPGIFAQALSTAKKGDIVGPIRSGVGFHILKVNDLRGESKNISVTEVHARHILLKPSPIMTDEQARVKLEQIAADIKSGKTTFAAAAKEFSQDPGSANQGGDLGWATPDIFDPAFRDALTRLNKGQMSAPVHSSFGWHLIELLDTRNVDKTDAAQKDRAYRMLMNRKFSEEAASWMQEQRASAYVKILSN", "assay": "MST; 100 nM Alexa Fluor 488-labelled tBamA or OmpX, SurA-WT or SurA-core in serial dilution (40 μM–1.2 nM for tBamA, 12.5 μM–3 nM for OmpX); 0.8 M urea, 20 mM Tris-HCl, pH 8.0, 25 °C; fitted to a Hill equation, apparent Kd"}, "SurA-core [2]": {"biological_target": "T2, SurA-core (E. coli, UniProt P0ABZ6 21-428, deleting codons for residues 172–389)", "T2 construct": "gene numbering including the signal peptide; no cleavage step described; also called core domain; construct lacking both PPIase domains; source: E. coli BL21(DE3), purified (HisTrap, dialysis)", "T2 sequence (looked up)": "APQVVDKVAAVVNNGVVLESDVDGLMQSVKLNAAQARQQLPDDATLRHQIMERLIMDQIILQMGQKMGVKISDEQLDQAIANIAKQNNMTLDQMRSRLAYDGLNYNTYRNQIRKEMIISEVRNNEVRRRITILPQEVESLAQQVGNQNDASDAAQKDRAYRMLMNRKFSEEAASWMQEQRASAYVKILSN", "assay": "MST; 100 nM Alexa Fluor 488-labelled tBamA or OmpX, SurA-WT or SurA-core in serial dilution (40 μM–1.2 nM for tBamA, 12.5 μM–3 nM for OmpX); 0.8 M urea, 20 mM Tris-HCl, pH 8.0, 25 °C; fitted to a Hill equation, apparent Kd"}, "SurA-WT [3]": {"biological_target": "T1, SurA-WT", "assay": "FRET or BRET; single-molecule FRET (pulsed interleaved excitation) between donor and acceptor on the two termini of unfolded OmpX (~75 pM) with 30 μM SurA-WT or SurA-core; 20 mM Tris-HCl, 0.1 M urea, 0.02% Tween-20, 1 mM aged Trolox, pH 8.0, ~21 °C; binding is read from the change of the client's own FRET distribution"}, "SurA-core [4]": {"biological_target": "T2, SurA-core", "assay": "FRET or BRET; single-molecule FRET (pulsed interleaved excitation) between donor and acceptor on the two termini of unfolded OmpX (~75 pM) with 30 μM SurA-WT or SurA-core; 20 mM Tris-HCl, 0.1 M urea, 0.02% Tween-20, 1 mM aged Trolox, pH 8.0, ~21 °C; binding is read from the change of the client's own FRET distribution"}, "SurA-WT [5]": {"biological_target": "T1, SurA-WT", "assay": "NMR titration; methyl-TROSY (2D 1H-13C SOFAST-HMQC) of Ile/Met 13CH3-labelled SurA-WT, single point: 5 µM SurA and 5 µM unfolded OMP; 5 mM EDTA, 20 mM Tris-HCl, pH 8.0, 0.8 M urea, 25 °C; peak intensities and CSPs"}}, "data": [{"binder": "B1", "values": [{"measurement": "binding result", "setting": "SurA-WT [1]", "value": "binds"}, {"measurement": "binding result", "setting": "SurA-core [2]", "value": "binds"}]}, {"binder": "B2", "values": [{"measurement": "binding result", "setting": "SurA-WT [3]", "value": "binds"}, {"measurement": "binding result", "setting": "SurA-core [4]", "value": "binds"}]}, {"binder": "B3", "values": [{"measurement": "binding result", "setting": "SurA-WT [5]", "value": "binds"}]}, {"binder": "B4", "values": [{"measurement": "binding result", "setting": "SurA-WT [5]", "value": "binds"}]}, {"binder": "B5", "values": [{"measurement": "binding result", "setting": "SurA-WT [5]", "value": "binds"}]}]}
